Experiment [1] has as its target endophilin SH3 (SH3G2_HUMAN), Q99962. The experiment in a line: SPOT array.
The target in experiment [2] is T1, amphyphisin SH3 (AMPH_HUMAN), P49418.
T1 chain: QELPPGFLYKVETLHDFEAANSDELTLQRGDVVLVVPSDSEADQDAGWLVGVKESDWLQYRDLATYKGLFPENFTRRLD
Nature of the experiment: SPOT array.

B1: Q9P2D6 185-198 (peptide)
chain: PLISFPRPVKTTWL
Turning to B1, the normalised SPOT signal, Boehringer light units (BLU); mean over the file's lines of this peptide in experiment [1] was determined as 172; in experiment [2] it was 201.

B2: Q9Y2W2 459-473 (peptide)
chain: PGPPPGRPPGPPPG
In the case of B2, the normalised SPOT signal, Boehringer light units (BLU); mean over the file's lines of this peptide in experiment [1] was determined as 924; in experiment [2] it was 33.4.

B3: Q9HA07 306-319 (peptide)
chain: PKSVLKRPVTSEEL
B3: the normalised SPOT signal, Boehringer light units (BLU); mean over the file's lines of this peptide in experiment [1] amounted to 48.9; in experiment [2], 37.6.

B4: O75698 245-258 (peptide)
chain: PKERLRRPETSGIS
For the molecule B4, the normalised SPOT signal, Boehringer light units (BLU); mean over the file's lines of this peptide was determined as 32.6 in experiment [1] and 38.7 in experiment [2].

B5: Q96D64 48-61 (peptide)
chain: PGTSPRRPSVVPSR
Regarding B5, the figures for the normalised SPOT signal, Boehringer light units (BLU); mean over the file's lines of this peptide in experiment [1] and in experiment [2] were 587 and 35.3, respectively.

B6: P52849 207-220 (peptide)
chain: PLLHLTRPSRLEPG
B6: the normalised SPOT signal, Boehringer light units (BLU); mean over the file's lines of this peptide in experiment [1] is 1220; in experiment [2], 1780.

B7: Q9GZW5 233-246 (peptide)
chain: PGTGPWRPGRQRGA
In the case of B7, the normalised SPOT signal, Boehringer light units (BLU); mean over the file's lines of this peptide in experiment [1] came to 156; in experiment [2], 656.

B8: Q9NTN9 19-32 (peptide)
chain: PGPSLRRPSRELDA
In the case of B8, the normalised SPOT signal, Boehringer light units (BLU); mean over the file's lines of this peptide in experiment [1] is 226; in experiment [2] it was 442.

B9: P78365 80-93 (peptide)
chain: PGQGLRRPARPGPA
Consider B9, for which the results for the normalised SPOT signal, Boehringer light units (BLU); mean over the file's lines of this peptide in experiment [1] and in experiment [2] were 1310 and 853, respectively.

B10: Q14669 1006-1019 (peptide)
chain: PKRGPRRPKYSPPR
Turning to B10, the values for the normalised SPOT signal, Boehringer light units (BLU); mean over the file's lines of this peptide in experiment [1] and in experiment [2] were 83.3 and 12.1, respectively.

B11: Q8TEP0 205-219 (peptide)
chain: PGSLPSKPPPGPVP
Turning to B11, the normalised SPOT signal, Boehringer light units (BLU); mean over the file's lines of this peptide turned out to be 22.8 in experiment [1] and 48.3 in experiment [2].

B12: Q9NQE0 211-224 (peptide)
chain: ARRPPPRPHRRAET
Consider B12, for which the results for the normalised SPOT signal, Boehringer light units (BLU); mean over the file's lines of this peptide in experiment [1] and in experiment [2] were 2500 and 2030, respectively.

B13: Q9H3S7 1093-1107 (peptide)
chain: PGPVPPRPPAAEPP
On to B13, for which the results for the normalised SPOT signal, Boehringer light units (BLU); mean over the file's lines of this peptide in experiment [1] and in experiment [2] were 331 and 50.3, respectively.

B14: Q9H6A9 285-298 (peptide)
chain: PGRAPRRPLLEGGG
B14: the results for the normalised SPOT signal, Boehringer light units (BLU); mean over the file's lines of this peptide in experiment [1] and in experiment [2] were 711 and 44.4, respectively.

B15: Q14184 97-111 (peptide)
chain: PGPSPARPPAKPPE
On to B15, for which the values for the normalised SPOT signal, Boehringer light units (BLU); mean over the file's lines of this peptide in experiment [1] and in experiment [2] were 194 and 19.1, respectively.

B16: Q9UN16 222-235 (peptide)
chain: PGVEPKRPSRPINL
Regarding B16, the normalised SPOT signal, Boehringer light units (BLU); mean over the file's lines of this peptide was 227 in experiment [1] and 8660 in experiment [2].

B17: Q9NVV2 32-45 (peptide)
chain: PHSAPLRPPRELHA
Turning to B17, the results for the normalised SPOT signal, Boehringer light units (BLU); mean over the file's lines of this peptide in experiment [1] and in experiment [2] were 13000 and 9310, respectively.

B18: Q9Y2Z7 47-60 (peptide)
chain: PISVLRRPGANHEG
As to B18, the results for the normalised SPOT signal, Boehringer light units (BLU); mean over the file's lines of this peptide in experiment [1] and in experiment [2] were 90.8 and 46.1, respectively.

B19: Q9H3X8 431-444 (peptide)
chain: PLPAPRRPKVNSIL
Turning to B19, the normalised SPOT signal, Boehringer light units (BLU); mean over the file's lines of this peptide is 744 in experiment [1] and 4680 in experiment [2].

B20: O60543 29-42 (peptide)
chain: PLMHPARPFRVSNH
Turning to B20, the normalised SPOT signal, Boehringer light units (BLU); mean over the file's lines of this peptide in experiment [1] was 15800; in experiment [2], 8020.

B21: Q9HA84 52-65 (peptide)
chain: PKTPPRRPVPVADS
Consider B21, for which the values for the normalised SPOT signal, Boehringer light units (BLU); mean over the file's lines of this peptide in experiment [1] and in experiment [2] were 61.3 and 314, respectively.

B22: O75833 33-46 (peptide)
chain: PGTPPRRPASPSAL
As for B22, the normalised SPOT signal, Boehringer light units (BLU); mean over the file's lines of this peptide in experiment [1] worked out at 3750; in experiment [2], 223.

B23: Q96FN8 185-198 (peptide)
chain: PHKRPRRPHQIADL
As for B23, the normalised SPOT signal, Boehringer light units (BLU); mean over the file's lines of this peptide in experiment [1] amounted to 58.2; in experiment [2], 75.3.

B24: O15427 206-219 (peptide)
chain: PGSGPPRPSRRLLD
For B24, the normalised SPOT signal, Boehringer light units (BLU); mean over the file's lines of this peptide in experiment [1] stood at 2310; in experiment [2], 748.

B25: O43188 617-630 (peptide)
chain: ARSYLRRPAVVYIG
As to B25, the normalised SPOT signal, Boehringer light units (BLU); mean over the file's lines of this peptide came to 60.1 in experiment [1] and 35.3 in experiment [2].

B26: Q99462 62-75 (peptide)
chain: PKDYPLRPPKMKFI
Regarding B26, the normalised SPOT signal, Boehringer light units (BLU); mean over the file's lines of this peptide in experiment [1] worked out at 1880; in experiment [2], 81.5.

B27: Q92932 113-126 (peptide)
chain: PKTYLRRPEASSPA
For the molecule B27, the normalised SPOT signal, Boehringer light units (BLU); mean over the file's lines of this peptide in experiment [1] amounted to 60.7; in experiment [2], 21.6.

B28: P56730 61-74 (peptide)
chain: PLPRFPRPPRALPA
Turning to B28, the results for the normalised SPOT signal, Boehringer light units (BLU); mean over the file's lines of this peptide in experiment [1] and in experiment [2] were 3490 and 1910, respectively.

B29: Q12984 75-88 (peptide)
chain: PGQGPQRPRRPAKD
For B29, the normalised SPOT signal, Boehringer light units (BLU); mean over the file's lines of this peptide in experiment [1] turned out to be 5880; in experiment [2], 4690.

B30: Q9H6X0 119-132 (peptide)
chain: PLLPPKRPLSSSHE
As to B30, the figures for the normalised SPOT signal, Boehringer light units (BLU); mean over the file's lines of this peptide in experiment [1] and in experiment [2] were 10400 and 680, respectively.

B31: Q9Y5X7 158-171 (peptide)
chain: PHADPGRPERLVFK
Turning to B31, the normalised SPOT signal, Boehringer light units (BLU); mean over the file's lines of this peptide was 8.4 in experiment [1] and 169 in experiment [2].

B32: Q9ULW0 418-432 (peptide)
chain: PKKPPVKPPTEPIG
For the molecule B32, the normalised SPOT signal, Boehringer light units (BLU); mean over the file's lines of this peptide in experiment [1] was found to be 64.2; in experiment [2], 37.6.

B33: Q9H6E1 62-75 (peptide)
chain: PHHELRRPVLQRQT
Consider B33, for which the normalised SPOT signal, Boehringer light units (BLU); mean over the file's lines of this peptide came to 4.1 in experiment [1] and 30.1 in experiment [2].

B34: O60331 5-18 (peptide)
chain: ARVPLGRPRRRPRA
For the molecule B34, the normalised SPOT signal, Boehringer light units (BLU); mean over the file's lines of this peptide in experiment [1] amounted to 200; in experiment [2], 421.

B35: AAM49716 571-585 (peptide)
chain: PKISPQKPPRKDME
Regarding B35, the normalised SPOT signal, Boehringer light units (BLU); mean over the file's lines of this peptide in experiment [1] was 487; in experiment [2], 2910.

B36: Q9HCH0 869-883 (peptide)
chain: PGVPPARPPPLTKV
In the case of B36, the normalised SPOT signal, Boehringer light units (BLU); mean over the file's lines of this peptide in experiment [1] is 10000; in experiment [2], 807.

B37: Q9NQV6 314-328 (peptide)
chain: PGRRPGRPPKFIRL
Turning to B37, the normalised SPOT signal, Boehringer light units (BLU); mean over the file's lines of this peptide in experiment [1] is 15700; in experiment [2], 504.

B38: Q9H7J0 315-328 (peptide)
chain: PIQNIKRPYPGEVS
For the molecule B38, the normalised SPOT signal, Boehringer light units (BLU); mean over the file's lines of this peptide in experiment [1] turned out to be 110; in experiment [2], 48.7.

These data come from article PMC314469, “Protein Interaction Networks by Proteome Peptide Scanning” (PLoS Biology, 2004).
